Experimental findings from paper PMC4014563, “A High-Throughput Method to Examine Protein-Nucleotide Interactions Identifies Targets of the Bacterial Transcriptional Regulatory Protein Fur” are described below.

Data set [1] addresses T1, Fur (ferric uptake regulator) (Neisseria gonorrhoeae F62, UniProt Q51008 1-144).
T1 sequence: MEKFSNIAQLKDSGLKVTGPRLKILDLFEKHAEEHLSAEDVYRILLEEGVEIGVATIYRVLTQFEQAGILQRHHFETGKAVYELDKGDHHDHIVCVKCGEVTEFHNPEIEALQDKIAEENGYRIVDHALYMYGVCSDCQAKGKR
Briefly: IRIS; 400 nM Fur; 0.5 dimer/dsDNA; 20 mM Tris-Cl pH 7.9, 5 mM MgCl2, 40 mM KCl, 0.125 mM MnCl2, 2 mM DTT, 10% glycerol, 0.19 ug/uL poly dIdC (EMSA also 3.125 ug/uL BSA), RT; IRIS 2 hr, EMSA 30 min with 12.5 nM probe. Conditions: protein: recombinant; tags: N-terminal 6xHis (pET15b) cleaved with thrombin and removed; chain copies: 2; label: surface-immobilized; blunt. (A gel shift assay detects complexes by their altered migration in electrophoresis.)

Data set [2] addresses T1, Fur (ferric uptake regulator). Briefly: IRIS; no DSH increase up to 800 nM Fur; 20 mM Tris-Cl pH 7.9, 5 mM MgCl2, 40 mM KCl, 0.125 mM MnCl2, 2 mM DTT, 10% glycerol, 0.19 ug/uL poly dIdC (EMSA also 3.125 ug/uL BSA), RT; IRIS 2 hr, EMSA 30 min with 12.5 nM probe. Conditions: protein: recombinant; tags: N-terminal 6xHis (pET15b) cleaved with thrombin and removed; chain copies: 2; label: surface-immobilized; blunt.

The target is the same in data set [3]. Briefly: IRIS; 400 nM Fur (concentration implied); ~1 dimer/dsDNA; 20 mM Tris-Cl pH 7.9, 5 mM MgCl2, 40 mM KCl, 0.125 mM MnCl2, 2 mM DTT, 10% glycerol, 0.19 ug/uL poly dIdC (EMSA also 3.125 ug/uL BSA), RT; IRIS 2 hr, EMSA 30 min with 12.5 nM probe. The following applies: protein: recombinant; tags: N-terminal 6xHis (pET15b) cleaved with thrombin and removed; chain copies: 2; label: surface-immobilized; blunt.

Data set [4] shares this target. Briefly: IRIS; 200 nM Fur; 1 dimer/dsDNA; 20 mM Tris-Cl pH 7.9, 5 mM MgCl2, 40 mM KCl, 0.125 mM MnCl2, 2 mM DTT, 10% glycerol, 0.19 ug/uL poly dIdC (EMSA also 3.125 ug/uL BSA), RT; IRIS 2 hr, EMSA 30 min with 12.5 nM probe. Conditions: protein: recombinant, tags: N-terminal 6xHis (pET15b) cleaved with thrombin and removed, chain copies: 2, blunt.
The target is the same in data set [5]. The experiment in a line: EMSA; Mn2+; apparent Kd; 20 mM Tris-Cl pH 7.9, 5 mM MgCl2, 40 mM KCl, 0.125 mM MnCl2, 2 mM DTT, 10% glycerol, 0.19 ug/uL poly dIdC (EMSA also 3.125 ug/uL BSA), RT; IRIS 2 hr, EMSA 30 min with 12.5 nM probe. Conditions: protein: recombinant; tags: N-terminal 6xHis (pET15b) cleaved with thrombin and removed; chain copies: 2; label: surface-immobilized (IRIS); 32P (EMSA); blunt.

B1: NGO1845 promoter probe (dsDNA)
DNA 1: CGGCAAACAAGAAAATCATCTTTTTTCTTGTCGTTATGCTTGACTGTCT
DNA 2: AGACAGTCAAGCATAACGACAAGAAAAAAGATGATTTTCTTGTTTGCCG
modifications: 5' amino-C6 on strand 1
B1: the binding signal in data set [1] was 1.7 ± 0.3 nm DSH.

B2: NGO1683 promoter probe (NGO1684 in Table 1) (dsDNA)
DNA 1: GCGGCGATTGTAATATAAGCGGCGGTATTTGTGTAGTTTTCTTCAGACG
DNA 2: CGTCTGAAGAAAACTACACAAATACCGCCGCTTATATTACAATCGCCGC
modifications: 5' amino-C6 on strand 1
For B2, the binding result in data set [2] is reported as “no binding”.

B3: NGO1745 promoter probe (dsDNA)
DNA 1: TACAGATGAAGACAATGAGCGTGCTGTTAAAGAGTTATTTAAGTCATTT
DNA 2: AAATGACTTAAATAACTCTTTAACAGCACGCTCATTGTCTTCATCTGTA
modifications: 5' amino-C6 on strand 1
As for B3, the binding result in data set [2] is listed as “no binding”.

B4: NGO0899 promoter probe (dsDNA)
DNA 1: TTTTATGCCGAAAATTGATTTTTTTTAAATTTTTTGTTTCTAAAATTTT
DNA 2: AAAATTTTAGAAACAAAAAATTTAAAAAAAATCAATTTTCGGCATAAAA
modifications: 5' amino-C6 on strand 1
With B4, in data set [3], the binding signal was 2.2 ± 0.1 nm DSH.

B5: NGO0641 promoter probe (dsDNA)
DNA 1: AAAGACAGCAAAGAATTGATTTTATTATAATTTATTTGTAAAGCCATTT
DNA 2: AAATGGCTTTACAAATAAATTATAATAAAATCAATTCTTTGCTGTCTTT
modifications: 5' amino-C6 on strand 1
Regarding B5, the binding signal in data set [4] (label: surface-immobilized) came out at 2 ± 0.1 nm DSH.

B6: NGO0073 promoter probe (dsDNA)
DNA 1: CTGTATAAATGATAATGGTTCTATTTTAATAAAGCACAACGCGGCTTGT
DNA 2: ACAAGCCGCGTTGTGCTTTATTAAAATAGAACCATTATCATTTATACAG
modifications: 5' amino-C6 on strand 1 (IRIS)
For the molecule B6, the Kd in data set [5] was 39.8 ± 6.3 nM.

B7: fur promoter Fur box probe (dsDNA)
DNA 1: CTGCTTGAATATTTTATAAAAGCGAACGATAATCATACGCTTAAGCGGT
DNA 2: ACCGCTTAAGCGTATGATTATCGTTCGCTTTTATAAAATATTCAAGCAG
modifications: 5' amino-C6 on strand 1 (IRIS)
On to B7, for which the Kd in data set [5] turned out to be 31.8 ± 7.9 nM.

B8: NGO1948 promoter probe (dsDNA)
DNA 1: TCTTTCCGTCAAAATACTTTCTTTTTATATTCATTAACTTGTTAAATTA
DNA 2: TAATTTAACAAGTTAATGAATATAAAAAGAAAGTATTTTGACGGAAAGA
modifications: 5' amino-C6 on strand 1
Turning to B8, the binding signal in data set [1] amounted to 1.7 ± 0.07 nm DSH.

B9: NGO0304 promoter probe (dsDNA)
DNA 1: GAACGAAAATTGATAAAACAAAAGTTAATTAATTGATTGAGAACATAAC
DNA 2: GTTATGTTCTCAATCAATTAATTAACTTTTGTTTTATCAATTTTCGTTC
modifications: 5' amino-C6 on strand 1
On to B9, for which the binding signal in data set [3] worked out at 2 ± 0.1 nm DSH.

B10: NGO0155 promoter probe (dsDNA)
DNA 1: GATATTTTGTGCTAAAAATTTATATAATATTTAAATTAATATCAAGTTA
DNA 2: TAACTTGATATTAATTTAAATATTATATAAATTTTTAGCACAAAATATC
modifications: 5' amino-C6 on strand 1
B10: in data set [3], the binding signal turned out to be 1.9 ± 0.1 nm DSH.

B11: NGO1284 promoter probe (dsDNA)
DNA 1: ACACGGGAAATAATATCAATATATTGATTTACAAACATAAAAATCATGC
DNA 2: GCATGATTTTTATGTTTGTAAATCAATATATTGATATTATTTCCCGTGT
modifications: 5' amino-C6 on strand 1
Take B11: the binding signal in data set [1] worked out at 1.7 ± 0.03 nm DSH.

B12: NGO1189 promoter probe (dsDNA)
DNA 1: ACTGCCGGTTTGAAAAAAGAATCCATATCGGTGTTTCCGCGCAGGAGGC
DNA 2: GCCTCCTGCGCGGAAACACCGATATGGATTCTTTTTTCAAACCGGCAGT
modifications: 5' amino-C6 on strand 1
In the case of B12, the binding signal in data set [3] stood at 2 ± 0.03 nm DSH.

B13: NGO1419 promoter probe (dsDNA)
DNA 1: TGACGAAAAAACAAAGAAGTATACTTCTTTTTAGTTATGGTTGATTCCA
DNA 2: TGGAATCAACCATAACTAAAAAGAAGTATACTTCTTTGTTTTTTCGTCA
modifications: 5' amino-C6 on strand 1
B13: the binding signal in data set [4] (label: surface-immobilized) stood at 1.9 ± 0.4 nm DSH.

B14: NGO0101 promoter probe (dsDNA)
DNA 1: CATATTTGAATATAAAAAAGAGCATTGTTGCGTTATCCAATGCTGTAAT
DNA 2: ATTACAGCATTGGATAACGCAACAATGCTCTTTTTTATATTCAAATATG
modifications: 5' amino-C6 on strand 1 (IRIS)
In the case of B14, the Kd in data set [5] worked out at 406 ± 145 nM. Besides, in data set [4] (label: surface-immobilized (IRIS), 32P (EMSA)), the binding signal was 1.9 ± 0.4 nm DSH.
